# Measurements as given in US20020142457A1, “Cell having the potentiality of differentiation into cardiomyocytes” (priority 1999, published 2002).
# Ends that are not written are not given here.
# B1: midkine: cytokine, amino acid sequence SEQ ID NO:68 (protein, listed as Homo sapiens)
# chain: MQHRGFLLLTLLALLALTSAVAKKKDKVKKGGPGSECAEWAWGPCTPSSKDCGVGFREGTCGAQTQRIRCRVPCNWKKEFGADCKYKFENWGACDGGTGTKVRQGTLKKARYNAQCQETIRVTKPCTPKTKAKAKAKKGKGKD
# modifications: CDS (1)..(432)
# B2: BMP4: bone morphogenic protein 4, cytokine (protein, UniProt P12644 293-408, looked up)
# Bone morphogenetic protein 4: SPKHHSQRARKKNKNCRRHSLYVDFSDVGWNDWIVAPPGYQAFYCHGDCPFPLADHLNSTNHAIVQTLVNSVNSSIPKACCVPTELSAISMLYLDEYDKVVLKNYQEMVVEGCGCR
# B3: FGF-8: fibroblast growth factor 8, cytokine (protein, UniProt P55075 23-233, looked up)
# Fibroblast growth factor 8: QEGPGRGPALGRELASLFRAGREPQGVSQQHVREQSLVTDQLSRRLIRTYQLYSRTSGKHVQVLANKRINAMAEDGDPFAKLIVETDTFGSRVRVRGAETGLYICMNKKGKLIAKSNGKGKDCVFTEIVLENNYTALQNAKYEGWYMAFTRKGRPRKGSKTRQHQREVHFMKRLPRGHHTTEQSLRFEFLNYPPFTRSLRGSQRTWAPEPR
# Key:
# [1] = tested on: bone marrow cell (BMSC-MesP1); assay: Quantitative PCR of genes expressed in myotube-like cells from BMSC-MesP1; format: cell-based, mouse; settings: BMSC-MesP1, 5-aza-C 3 μM, cytokine 10 ng/ml
# Method: Next, RNA was recovered from the thus obtained myotube-like cells, and genes expressing in the myotube-like cells were analyzed by quantitative PCR using the synthetic oligonucleotides shown in SEQ ID NOS:71 to 78. As a result, expression of ANP as a gene specific for a myocardium was accelerated by the forced expression of MesP1.
# [2] = tested on: Nkx2.5/Csx and GATA4 co-forced expressing bone marrow cells (BMSC-Nkx2.5-GATA4); assay: Differentiation of BMSC-Nkx2.5-GATA4 with cytokines, phase-contrast microscope; format: cell-based, mouse; settings: cytokine 10 ng/ml, four weeks; for cells differentiated into myotubes: BMSC-Nkx2.5-GATA4, 5-aza-C 3 μM in all dishes; for beating cardiomyocytes: BMSC-Nkx2.5-GATA4, 5-aza-C 3 μM
# Method: The Nkx2.5/Csx and GATA4 co-forced expressing bone marrow cells (BMSC-Nkx2.5-GATA4) having the potential to differentiate into cardiomyocytes were plated into a 60-mm culture dish at a density of 2×10^4 cells/ml and cultured at 33° C. in a 5% CO2-incubator.
# On the next day, 5-aza-C was added to the culture medium to give a final concentration of 3 μM. Furthermore, 5 treatments differing from each other were carried out by adding FGF-8 to give a final concentration of 10 ng/ml (culture dish I); adding ET-1 to give a final concentration of 10 ng/ml (culture dish J); adding midkine to give a final concentration of 10 ng/ml (culture dish K); adding BMP4 to give a final concentration of 10 ng/ml (culture dish L); and adding nothing (culture dish M), followed by culturing.
# On the next day, the medium was replaced with a fresh medium to eliminate 5-aza-C. Then, FGF-8 was added to the culture dish I to give a final concentration of 10 ng/ml; ET-1 was added to the culture dish J to give a final concentration of 10 ng/ml; midkine was added to the culture dish K to give a final concentration of 10 ng/ml; and BMP4 was added to the culture dish L to give a final concentration of 10 ng/ml, followed by culturing. Two and four days thereafter, furthermore, the medium was replaced, and the FGF-8, ET-1, midkine or BMP4 was added.
# As a result, about 30% of the cells in the culture dish containing 5-aza-C alone were converted into myotubes, while about 50% of the cells in the culture dishes containing FGF-8, ET-1, midkine or BMP4 differentiated into myotubes respectively. On the other hand, the addition of FGF-8, ET-1, midkine or BMP4 caused no increase in beating cardiomyocytes.
# [3] = tested on: mouse bone marrow-derived pluripotent stem cells (BMSC); assay: Differentiation of BMSC into myotubes, phase-contrast microscope; format: cell-based; settings: 5-aza-C 3 μM in all dishes, cytokine 10 ng/ml, four weeks after addition of 5-aza-C
# Method: The mouse bone marrow-derived pluripotent stem cells (BMSC) having the potential to differentiate into cardiomyocytes were plated into 60-mm culture dishes and 60 mm fibronectin-coated dishes (Becton Dickinson) at a density of 2×10^4 cells/ml and cultured at 33° C. in a 5% CO2-incubator.
# On the next day, 5-aza-C was added to each culture medium in a final concentration of 3 μM, followed by culturing with the following 3 different treatments, with addition of PDGF (culture dish A), both PDGF and retinoic acid (culture dish B) or without addition of any compound (culture dish C) (final concentration: PDGF, 10 ng/ml; retinoic acid, 10^−9 M).
# On the next day, the medium was replaced with a fresh medium to remove 5-aza-C therefrom. Then, PDGF was added to the culture dish A until the final concentration of PDGF came to be 10 ng/ml, while PDGF and retinoic acid were added to the culture dish B until the final concentrations of PDGF and retinoic acid came to be 10 ng/ml and 10^−9 M, respectively. Two and four days thereafter, the medium was replaced and the PDGF or retinoic acid was further added.
# As a result, about 30% of the cells in the culture dish containing 5-aza-C alone differentiated into myotubes, while about 40% of the cells in the culture dish containing PDGF and about 50% of the cells in the culture dish containing PDGF together with retinoic acid differentiated into myotubes. In the three groups of the fibronectin-coated dishes, the ratio of the cells differentiated into myotubes was about 10% higher than in the three groups of the culture dishes.
# (§1) RNAs were collected from the myotubes thus obtained. And genes expressed in the myotubes were analyzed with quantitative PCR analysis using the synthetic oligonucleotides represented by SEQ ID NOS:71 to 78. As a result, PDGF or retinoic acid promoted the expression of MyoD and fTnI genes relating to a skeletal muscle but not cTnI or ANP specifically relating to a myocardium. Next, mouse bone marrow-derived pluripotent stem cells (BMSC) having the potential to differentiate into cardiomyocytes were inoculated in a 60-mm culture dish at a density of 2×10^4 cells/ml and cultured using an incubator at 33° C. under 5% of CO2.
# On the next day, 5-aza-C was added to the liquid culture medium to give a final concentration of 3 μM. Furthermore, five treatments differing from each other were performed by adding FGF-8 to give a final concentration of 10 ng/ml (culture dish D); adding ET-1 to give a final concentration of 10 ng/ml (culture dish E); adding a midkine to give a final concentration of 10 ng/ml (Culture dish F); adding BMP4 to give a final concentration of 10 ng/ml (culture dish G); and adding no compound (culture dish H), followed by culturing.
# On the next day, the medium was replaced by a fresh medium to eliminate 5-aza-C therefrom. Then, FGF-8 was added to the culture dish D to give a final concentration of 10 ng/ml; ET-1 was added to the culture dish E to give a final concentration of 10 ng/ml; the midkine was added to the culture dish F to give a final concentration of 10 ng/ml; and BMP4 was added to the culture dish G to give a final concentration of 10 ng/ml, followed by culturing. Two and four days thereafter, the medium was replaced and the FGF-8, ET-1, midkine or BMP4 was further added.
# As a result, about 30% of the cells in the culture dish containing 5-aza-C alone differentiated into myotubes, while about 50% of the cells in the culture dishes containing FGF-8, ET-1, midkine or BMP4 differentiated into myotubes respectively.
# [4] = tested on: mouse bone marrow-derived pluripotent stem cells (BMSC); assay: Quantitative PCR of genes expressed in myotubes from BMSC; format: cell-based; settings: with 5-aza-C 3 μM, cytokine 10 ng/ml
# Method: as §1
# RNAs were collected from the myotubes thus obtained. And genes expressed in the myotubes were analyzed with quantitative PCR using the synthetic oligonucleotides represented by SEQ ID NOS:71 to 78. As a result, the FGF-8, ET-1, midkine and BMP4 each individually promoted the expression of cTnI and ANP gene which are myocardium-specific genes.
Molecule,expression of ANP accelerated by the forced expression of MesP1 [1],cells differentiated into myotubes [2],beating cardiomyocytes [2],cells differentiated into myotubes [3],expression of cTnI and ANP gene (myocardium-specific genes) [4]
"ET-1: endothelin 1, cytokine (CSCSSLMDKECVYFCHLDIIW; ends and bridges not checked; cysteine pairing not given here; UniProt P05305 53-73, looked up)",did not further accelerate,about 50%,no increase,about 50%,promoted
B1,did not further accelerate,about 50%,no increase,about 50%,promoted
B2,did not further accelerate,about 50%,no increase,about 50%,promoted
B3,did not further accelerate,about 50%,no increase,about 50%,promoted
